In paper PMC4333404, “Bcl2 inhibits recruitment of Mre11 complex to DNA double-strand breaks in response to high-linear energy transfer radiation”:

Molecular target: T1, Mre11 (UniProt P49959 1-708)
T1 sequence: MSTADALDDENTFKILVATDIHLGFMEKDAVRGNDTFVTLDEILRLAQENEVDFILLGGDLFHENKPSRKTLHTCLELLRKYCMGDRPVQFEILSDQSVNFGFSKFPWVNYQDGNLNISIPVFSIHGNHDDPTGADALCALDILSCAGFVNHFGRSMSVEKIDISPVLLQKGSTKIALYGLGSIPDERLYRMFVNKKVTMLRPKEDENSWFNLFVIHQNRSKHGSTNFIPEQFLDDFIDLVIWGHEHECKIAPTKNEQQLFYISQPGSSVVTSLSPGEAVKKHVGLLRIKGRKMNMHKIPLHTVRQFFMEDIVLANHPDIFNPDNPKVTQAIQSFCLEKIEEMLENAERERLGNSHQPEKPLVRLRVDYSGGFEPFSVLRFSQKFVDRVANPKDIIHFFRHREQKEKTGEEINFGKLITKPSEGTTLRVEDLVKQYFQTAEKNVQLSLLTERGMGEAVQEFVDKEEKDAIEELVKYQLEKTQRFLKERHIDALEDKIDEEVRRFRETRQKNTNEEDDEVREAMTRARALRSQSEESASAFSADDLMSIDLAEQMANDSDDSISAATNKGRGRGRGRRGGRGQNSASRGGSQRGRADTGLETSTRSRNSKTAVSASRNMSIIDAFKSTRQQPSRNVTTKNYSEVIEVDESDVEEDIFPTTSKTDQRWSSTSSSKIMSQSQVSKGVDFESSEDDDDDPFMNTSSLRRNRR
Assay: EMSA; increasing Mre11; 1 mM Mg acetate; no Bcl2; EMSA: 25 mM MOPS pH 7.0, 60 mM KCl, 0.2% Tween, 2 mM DTT, 1 mM Mg(CH3COO)2, 37 C 15 min; 10 pM DNA, 10 nM Mre11; 5% native PAGE in TBE at 4 C
Conditions: protein: recombinant; tags: Flag; chain copies: 2; label: 5'-32P on TP423; 34 bp duplex (S3[1-34] with S4[1-34]); 3' overhangs 16 nt (TP423) and 15 nt (TP424)

B1: TP423/TP424 3' overhanging duplex (dsDNA)
DNA 1: CTGCAGGGTTTTTGTTCCAGTCTGTAGCACTGTGTAAGACAGGCCAGATC
DNA 2: CACAGTGCTACAGACTGGAACAAAAACCCTGCAGTACTCTACTCATCTC
B1: binds.
